Data published in patent publication US20220017622A1 (Pfizer, published 2022).
Numbering of substitutions follows the chain as printed. Values belong to the binder of their own block, whether it stands above or below them.

Assays:
[1] = target: T1, cyno B7-H4 extracellular domain (cyno, UniProt Q7Z7D3 29-258 (human entry)); assay: SPR 37 C; IgG1 on anti-hFc chip, ECD analyte
T1 construct: Soluble ECD used as SPR analyte; also called cyB7-H4 ECD; cyB7-H4
T1 sequence: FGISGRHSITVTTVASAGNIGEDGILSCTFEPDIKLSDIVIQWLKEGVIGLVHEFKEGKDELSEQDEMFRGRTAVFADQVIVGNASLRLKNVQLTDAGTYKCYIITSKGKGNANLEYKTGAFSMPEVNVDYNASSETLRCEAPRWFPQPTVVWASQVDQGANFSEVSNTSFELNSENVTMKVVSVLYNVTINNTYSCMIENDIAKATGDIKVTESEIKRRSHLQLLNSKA

[2] = target: T2, mouse B7-H4 extracellular domain (mouse, UniProt Q7TSP5 29-258); assay: SPR 37 C; IgG1 on anti-hFc chip, ECD analyte
T2 construct: Soluble ECD used as SPR analyte; also called muB7-H4 ECD; muB7-H4
T2 sequence: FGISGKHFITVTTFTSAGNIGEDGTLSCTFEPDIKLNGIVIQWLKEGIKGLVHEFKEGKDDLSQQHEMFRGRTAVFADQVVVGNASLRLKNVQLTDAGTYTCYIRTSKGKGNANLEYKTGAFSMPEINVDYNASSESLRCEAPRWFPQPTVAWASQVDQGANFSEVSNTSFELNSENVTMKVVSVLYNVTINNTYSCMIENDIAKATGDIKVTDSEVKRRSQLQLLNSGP

[3] = target: T3, human B7-H4 extracellular domain (human, UniProt Q7Z7D3 29-258); assay: SPR 37 C; IgG1 on anti-hFc chip, ECD analyte;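 also: antibodies captured, then B7-H4 ECD injected at five 3-fold dilutions from 300 nM, 65 s association and 600 s dissociation, fitted to a 1:1 Langmuir model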
T3 construct: Soluble ECD used as SPR analyte; also called huB7-H4 ECD; huB7-H4
T3 sequence: T1 sequence with I49L

[4] = target: T4, human CD3 (delta/epsilon heterodimer) (human, UniProt P07766 23-126; P04234 22-105); assay: SPR 25 C; CD3 delta/epsilon on anti-His chip, bispecific analyte
T4 construct: captured on an anti-His chip, so it carries a His tag; also called huCD3
T4 sequence (P07766 23-126, stated change not applied, chain 1 of 2): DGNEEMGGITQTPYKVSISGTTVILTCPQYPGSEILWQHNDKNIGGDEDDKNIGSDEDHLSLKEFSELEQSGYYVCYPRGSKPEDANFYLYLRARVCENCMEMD
T4 sequence (P04234 22-105, stated change not applied, chain 2 of 2): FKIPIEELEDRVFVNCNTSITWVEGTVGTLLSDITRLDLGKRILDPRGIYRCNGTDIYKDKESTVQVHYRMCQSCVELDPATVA

[5] = target: T5, cyno CD3 (delta/epsilon heterodimer) (cyno, UniProt Q95LI5 22-117; Q95LI8 22-105); assay: as above
T5 construct: also called cyCD3
T5 sequence (Q95LI5 22-117, stated change not applied, chain 1 of 2): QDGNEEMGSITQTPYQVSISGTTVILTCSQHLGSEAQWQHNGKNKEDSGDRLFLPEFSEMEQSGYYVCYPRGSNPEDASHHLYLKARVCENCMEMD
T5 sequence (Q95LI8 22-105, stated change not applied, chain 2 of 2): as the sequence (P04234 22-105, stated change not applied, chain 2 of 2) above, with I5V, N15K, I20V, S32T, D33N, I34N, T64A, S74N, V83L counted along it

[6] = target: T3, human B7-H4 extracellular domain; assay: SPR 25 C; bispecific on anti-hFc chip, ECD analyte
[7] = target: T1, cyno B7-H4 extracellular domain; assay: SPR 25 C; bispecific on anti-hFc chip, ECD analyte
[8] = target: T2, mouse B7-H4 extracellular domain; assay: SPR 25 C; bispecific on anti-hFc chip, ECD analyte
human B7-H4 on cells = target: T6, human B7-H4 on cells (human, UniProt Q7Z7D3 25-282); assay: cell-based or functional assay
T6 sequence (looked up): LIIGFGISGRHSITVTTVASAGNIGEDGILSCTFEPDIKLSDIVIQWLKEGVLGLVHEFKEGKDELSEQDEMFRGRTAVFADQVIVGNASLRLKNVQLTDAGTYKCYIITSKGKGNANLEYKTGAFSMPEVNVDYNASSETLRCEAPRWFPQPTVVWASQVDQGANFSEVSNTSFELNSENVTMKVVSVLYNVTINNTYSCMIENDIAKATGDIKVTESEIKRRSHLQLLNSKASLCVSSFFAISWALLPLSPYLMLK

[9] = target: T3, human B7-H4 extracellular domain; assay: SPR 37 C; bispecific on anti-hFc chip, ECD analyte
[10] = target: T1, cyno B7-H4 extracellular domain; assay: SPR 37 C; bispecific on anti-hFc chip, ECD analyte
[11] = target: T7, human B7-H4 on human tumor cell lines (human, UniProt Q7Z7D3 25-282); assay: cell-based or functional assay
T7 sequence (looked up): T6 sequence (looked up)

Kd [1]: 30.7 nM
koff [1]: 0.00424 s⁻¹
kon [1]: 139000 M⁻¹ s⁻¹
Kd [2]: 883 nM
koff [2]: 0.126 s⁻¹
kon [2]: 143000 M⁻¹ s⁻¹
Kd [3]: 12.1 nM
koff [3]: 0.00565 s⁻¹
kon [3]: 467000 M⁻¹ s⁻¹
B1: B7-H4 antibody 0052 (antibody, human IgG1, kappa, V domains shown)
VH: QVQLQQWGAGLLKPSETLSLTCAVYGGSFSGYYWNWIRQPPGKGLEWIGEINHSGSTKYNPSLKSRVTISGDTSKNQFSLKLNSVTAADTAVYYCVRGLYNWNVDSWGQGTLVTVSS
VL: DIQMTQSPSSLSASVGDRVTITCRASQGIRNDLGWYQQKPGKAPKRLIYVASSLQSGVPSRFSGSGSGTEFTLTISSLQPEDFATYYCLQHNSYPYTFGQGTKLEIKR
notes: IgG1 mAb format; parental; also called 28D10

Kd [4]: 12.7 nM
koff [4]: 0.00521 s⁻¹
kon [4]: 411000 M⁻¹ s⁻¹
Kd [5]: 13.3 nM
koff [5]: 0.00493 s⁻¹
kon [5]: 372000 M⁻¹ s⁻¹
Kd [6]: 2.39 nM
koff [6]: 0.000692 s⁻¹
kon [6]: 296000 M⁻¹ s⁻¹
Kd [7]: 4.29 nM
koff [7]: 0.000676 s⁻¹
kon [7]: 157000 M⁻¹ s⁻¹
Kd [8]: 74.8 nM
koff [8]: 0.0138 s⁻¹
kon [8]: 189000 M⁻¹ s⁻¹
Kd [9]: 6.08 nM
koff [9]: 0.00283 s⁻¹
kon [9]: 465000 M⁻¹ s⁻¹
Kd [10]: 12.8 nM
koff [10]: 0.00282 s⁻¹
kon [10]: 220000 M⁻¹ s⁻¹
B2: B7-H4xCD3 bispecific antibody 0080 (bispecific antibody, IgG2)
heavy 1: QVQLQQWGAGLLKPSETLPLTCAVYGGSFSGYYWNWIRQPPGKGLEWIGEINHSGSATYNPSLKSRVTISVDTSKNHFSLKLSSVTAADTAVYFCARGLYNWNVDHWGQGTLVTVSSASTKGPSVFPLAPCSRSTSESTAALGCLVKDYFPEPVTVSWNSGALTSGVHTFPAVLQSSGLYSLSSVVTVPSSNFGTQTYTCNVDHKPSNTKVDKTVERKCEVECPECPAPPVAGPSVFLFPPKPKDTLMISRTPEVTCVVVAVSHEDPEVQFNWYVDGVEVHNAKTKPREEQFNSTFRVVSVLTVVHQDWLNGKEYKCKVSNKGLPSSIEKTISKTKGQPREPQVYTLPPSREEMTKNQVSLTCEVKGFYPSDIAVEWESNGQPENNYKTTPPMLDSDGSFFLYSKLTVDKSRWQQGNVFSCSVMHEALHNHYTQKSLSLSPGK
light 1: DIQMTQSPSSLSASVGDRVTITCRASQGIRNDLGWYQQKPGKAPKRLIYAASSLQSGVPSRFSGSGSGTEFTLTISSLQPEDFATYYCLQHNSYPRTFGGGTKVEIKRTVAAPSVFIFPPSDEQLKSGTASVVCLLNNFYPREAKVQWKVDNALQSGNSQESVTEQDSKDSTYSLSSTLTLSKADYEKHKVYACEVTHQGLSSPVTKSFNRGEC
heavy 2: EVQLVESGGGLVQPGGSLRLSCAASGFTFSDYYMTWVRQAPGKGLEWVAFIRNQARGYTSDHNPSVKGRFTISRDNAKNSLYLQMNSLRAEDTAVYYCARDRPSYYVLDYWGQGTTVTVSSASTKGPSVFPLAPCSRSTSESTAALGCLVKDYFPEPVTVSWNSGALTSGVHTFPAVLQSSGLYSLSSVVTVPSSNFGTQTYTCNVDHKPSNTKVDKTVERKCRVRCPRCPAPPVAGPSVFLFPPKPKDTLMISRTPEVTCVVVAVSHEDPEVQFNWYVDGVEVHNAKTKPREEQFNSTFRVVSVLTVVHQDWLNGKEYKCKVSNKGLPSSIEKTISKTKGQPREPQVYTLPPSREEMTKNQVSLTCLVKGFYPSDIAVEWESNGQPENNYKTTPPMLDSDGSFFLYSRLTVDKSRWQQGNVFSCSVMHEALHNHYTQKSLSLSPGK
light 2: DIQMTQSPSSLSASVGDRVTITCTSSQSLFNVRSQKNYLAWYQQKPGKAPKLLIYWASTRESGVPSRFSGSGSGTDFTLTISSLQPEDFATYYCKQSYDLFTFGGGTKVEIKRTVAAPSVFIFPPSDEQLKSGTASVVCLLNNFYPREAKVQWKVDNALQSGNSQESVTEQDSKDSTYSLSSTLTLSKADYEKHKVYACEVTHQGLSSPVTKSFNRGEC
notes: Chains 1-2: B7-H4 arm; chains 3-4: CD3 arm; IgG2 EEE/RRR; also called anti-B7-H4 clone 7H7
T cell mediated tumor cell killing EC50, HCC1954-Luc (human B7-H4 on cells): 36 nM

B3: B7-H4xCD3 bispecific antibody 1167 (bispecific antibody, IgG2)
heavy 1: EVQLLESGGGLVQPGGSLRLSCAASGFTFSSYAMSWVRQAPGKGLEWVSAISGGGGSTYYADSVKGRFTISRDNSKNTLYLQMNSLRAEDTAVYYCARDIQWYGESTLFDYWGQGTLVTVSSASTKGPSVFPLAPCSRSTSESTAALGCLVKDYFPEPVTVSWNSGALTSGVHTFPAVLQSSGLYSLSSVVTVPSSNFGTQTYTCNVDHKPSNTKVDKTVERKCEVECPECPAPPVAGPSVFLFPPKPKDTLMISRTPEVTCVVVAVSHEDPEVQFNWYVDGVEVHNAKTKPREEQFNSTFRVVSVLTVVHQDWLNGKEYKCKVSNKGLPSSIEKTISKTKGQPREPQVYTLPPSREEMTKNQVSLTCEVKGFYPSDIAVEWESNGQPENNYKTTPPMLDSDGSFFLYSKLTVDKSRWQQGNVFSCSVMHEALHNHYTQKSLSLSPGK
light 1: DIQMTQSPSSLSASVGDRVTITCRASQSTRSHLAWYQQKPGKAPKLLIYKASSLEGGVPSRFSGSGSGTDFTLTISSLQPEDFATYYCQQYGSYSRTFGQGTKVEIKRTVAAPSVFIFPPSDEQLKSGTASVVCLLNNFYPREAKVQWKVDNALQSGNSQESVTEQDSKDSTYSLSSTLTLSKADYEKHKVYACEVTHQGLSSPVTKSFNRGEC
heavy 2: B2 heavy 2
light 2: B2 light 2
EC50 (nM) of Antibody 1167 in inducing redirected T cell killing in vitro, HCC1954 cells (B7-H4 density 20039 per cell) [11]: 0.8 nM
EC50 (nM) of Antibody 1167 in inducing redirected T cell killing in vitro, MDA-MB-453 cells (B7-H4 density 1198 per cell) [11]: 8.44 nM
EC50 (nM) of Antibody 1167 in inducing redirected T cell killing in vitro, MDA-MB-468 cells (B7-H4 density 83936 per cell) [11]: 0.4 nM
EC50 (nM) of Antibody 1167 in inducing redirected T cell killing in vitro, MX1 cells (B7-H4 density 108684 per cell) [11]: 0.062 nM
EC50 (nM) of Antibody 1167 in inducing redirected T cell killing in vitro, T47D cells (B7-H4 density 6133 per cell) [11]: 0.54 nM
